Measured values reported in patent US6087166.

Assays:
Assay in all cases: cell_activity
[1] = test system: TetR-FG (tTA7) (/ HSV fusion); conditions: relative to tTA; -Tc 88, +Tc 24
[2] = test system: TetR-FFF (tTA2) (/ HSV fusion); conditions: relative to tTA; -Tc 259556, +Tc 33
[3] = test system: TetR-GFY (tTA4) (/ HSV fusion); conditions: relative to tTA; -Tc 37217, +Tc 25
[4] = test system: TetR-FFFF (tTA1) (/ HSV fusion); conditions: relative to tTA; -Tc 607264, +Tc 33
[5] = test system: TetR-FGY (tTA5) (/ HSV fusion); conditions: relative to tTA; -Tc 12080, +Tc 16
[6] = test system: TetR-VP16 (tTA) (/ HSV fusion); conditions: luciferase -Tc 265410, +Tc 20
[7] = test system: TetR-FF (tTA3) (/ HSV fusion); conditions: relative to tTA; -Tc 102828, +Tc 27
[8] = test system: TetR-GF (tTA6) (/ HSV fusion); conditions: relative to tTA; -Tc 1500, +Tc 28

With “PhCMV*-1 promoter (tet operators, luciferase reporter in HeLa X1/6)” the activity [1] was 0.03%, the activity [2] was 98% and the activity [3] was 14%. For the same substance, the activity [4] was 230%, the activity [5] was 4.6% and the activity [6] was 100%. The activity [7] was 39% and the activity [8] was 0.6%.
